According to patent publication US20200317791A1 (Janssen / Centocor, published 2020):
Numbering of substitutions follows the chain as printed. Where two headings read alike, the source gives them in different places.

What was measured:
A24_A*24:02 [1] = molecular target: T1, A24_A*24:02 (human, UniProt A*24:02); test: LABScreen beads
T1 construct: on LABScreen bead; also called HLA-A*24:02 (LABScreen class I bead)
T1 heavy chain: not shown

CW6W32 (rhHLA-Cw6/TRAT) [2] = molecular target: T2, CW6W32 (rhHLA-Cw6/TRAT) (human); test: SPR ProteOn XPR36, captured mAb
T2 construct: also called CW6W32.009; rHLA-Cw6/TRAT
Procedure: (§1) Anti-HLA-Cw6 mAbs were captured at ligand densities ranging from 100 to 200 response units. […] All analyses were conducted in PBST at 100 μL/min flow rate with association and dissociation times of 180 and 900 seconds, respectively. […] Analyte raw data was double referenced by subtraction of the blank surface response at “interspots” (to correct for refractive index changes and any non-specific interactions with the chip surface) and of the buffer blank response (to correct for any baseline drift resulting from mAb dissociation over time). Referenced data were globally fit to a 1:1 simple Langmuir binding model. Kinetic parameters were calculated for each mAb/antigen combination or interaction using Bio-Rad ProteOn Manager software (version 3.1.0.6) with parameter (kon, koff, Rmax) scope and type set to “Grouped” and “Fitted,” respectively.

[3] = molecular target: T3, CW6W36 (rhHLA-Cw6/ADAMTSL5) (human); test: SPR ProteOn XPR36, captured mAb
T3 construct: also called CW6W36.002; rHLA-Cw6/ADAMTSL5
Procedure: as §1

[4] = molecular target: T4, CW6W3.ECO.PP.002/.003 (rhHLA-Cw6/ARF) (human); test: SPR ProteOn XPR36, captured mAb; valid kinetic fit;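 for Kd: Anti-HLA-Cw6 mAbs captured at 100–200 RU, antigen flowed in PBST, 180 s association and 900 s dissociation, double-referenced sensorgrams globally fit to a 1:1 Langmuir model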;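 for koff: Anti-HLA-Cw6 mAbs captured at 100–200 RU, antigen flowed in PBST, 180 s association and 900 s dissociation, double-referenced sensorgrams globally fit to a 1:1 Langmuir model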
T4 construct: also called rhHLA-Cw6/ARFN; rHLA-Cw6/ARFN
Procedure: as §1

A24_A*24:02 [5] = molecular target: T1, A24_A*24:02; test: LABScreen beads
[6] = molecular target: T4, CW6W3.ECO.PP.002/.003 (rhHLA-Cw6/ARF); test: SPR ProteOn XPR36, captured mAb
Procedure: as §1

[7] = molecular target: T3, CW6W36 (rhHLA-Cw6/ADAMTSL5); test: SPR Biacore 8K, captured mAb; Acceptable fit
Source text: To further characterize the ability of the antibodies to differentiate between class I MHC molecules.

CW6W32 (rhHLA-Cw6/TRAT) [8] = molecular target: T2, CW6W32 (rhHLA-Cw6/TRAT); test: SPR ProteOn XPR36, captured mAb; valid kinetic fit;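 for Kd: Anti-HLA-Cw6 mAbs captured at 100–200 RU, antigen flowed in PBST, 180 s association and 900 s dissociation, double-referenced sensorgrams globally fit to a 1:1 Langmuir model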;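 for koff: Anti-HLA-Cw6 mAbs captured at 100–200 RU, antigen flowed in PBST, 180 s association and 900 s dissociation, double-referenced sensorgrams globally fit to a 1:1 Langmuir model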
Procedure: as §1

CW6W32 (rhHLA-Cw6/TRAT) [9] = molecular target: T2, CW6W32 (rhHLA-Cw6/TRAT); test: SPR Biacore 8K, captured mAb; Kinetic fit not valid
CW6W35.001 = test: as above
CW6W51.001 = test: as above
CW6W53.001 = test: as above
CW6W54.001 = test: as above
[10] = molecular target: T3, CW6W36 (rhHLA-Cw6/ADAMTSL5); test: SPR ProteOn XPR36, captured mAb; valid kinetic fit, range of two replicates
Procedure: as §1

[11] = molecular target: T3, CW6W36 (rhHLA-Cw6/ADAMTSL5); test: SPR ProteOn XPR36, captured mAb; valid kinetic fit, range of two replicates (second end)
Procedure: as §1

B1: CW6B188 (antibody, V domains shown)
VH: EVQLVESGGGLVQPGGSLRLSCAASGFTFTNYWMTWVRQAPGKGLEWVANIKQSGNEKYYVDSVKGRFTISRDNAKNSLYLQMNSLRAEDTAVYYCARTLYEWELEPFDYWGQGTLVTVSS
VL: SYVLTQPPSVSVAPGQTARITCGGNRIGSKNLHWYQQKPGQAPVLVVYDDSDRPSGIPERFSGSNSGSTATLTISRVEAGDEADYYCQVWDSSRDHVVFGGGTKLTVL
notes: also called CW6B188.001; CW6M188 (DNA ID)
- binding result (A24_A*24:02 [1]): no binding (tested: 10 µg/ml)
- binding result (CW6W32 (rhHLA-Cw6/TRAT) [2]): binds
- binding result [3]: binds
- Kd [4]: 120 pM
- koff [4]: 0.000574 s⁻¹
- kon [4]: 5.66e+06 M⁻¹ s⁻¹

B2: CW6B130 (antibody, V domains shown)
VH: QLQLQESGPGLVKPSETLSLTCTVSGASISSINYYWGWIRQPPGKGLEWIGSFYYSGNTYYNPSLKSRVTISVDTSKNYFSLKLNSVTAADTAVYYCAREYYDSSGYYPFEPWGQGTLVTVSS
VL: B1 VL with N25D, R26N, K30E, N31S, L32V, S51T, N65K, S68T, R76W, R94S
notes: also called CW6B130.001; CW6M130 (DNA ID)
- binding result (A24_A*24:02 [5]): no binding (tested: 10 µg/ml)
- binding result [6]: binds
- Kd [7]: 272 pM
- koff [7]: 0.00184 s⁻¹
- kon [7]: 6.77e+06 M⁻¹ s⁻¹
- Kd (CW6W32 (rhHLA-Cw6/TRAT) [8]): 270 pM
- koff (CW6W32 (rhHLA-Cw6/TRAT) [8]): 0.00272 s⁻¹
- kon (CW6W32 (rhHLA-Cw6/TRAT) [8]): 1.03e+07 M⁻¹ s⁻¹
- Kd (CW6W32 (rhHLA-Cw6/TRAT) [9]): 622 pM
- koff (CW6W32 (rhHLA-Cw6/TRAT) [9]): 0.00509 s⁻¹
- kon (CW6W32 (rhHLA-Cw6/TRAT) [9]): 8.2e+06 M⁻¹ s⁻¹
- Kd (CW6W35.001): 6040 pM
- koff (CW6W35.001): 0.0101 s⁻¹
- kon (CW6W35.001): 1.67e+06 M⁻¹ s⁻¹
- Kd (CW6W51.001): 571 pM
- koff (CW6W51.001): 0.000389 s⁻¹
- kon (CW6W51.001): 681000 M⁻¹ s⁻¹
- Kd (CW6W53.001): 205 pM
- koff (CW6W53.001): 0.0054 s⁻¹
- kon (CW6W53.001): 2.63e+07 M⁻¹ s⁻¹
- Kd (CW6W54.001): 82.8 pM
- koff (CW6W54.001): 0.00204 s⁻¹
- kon (CW6W54.001): 2.47e+07 M⁻¹ s⁻¹
- Kd [10]: 58.6 pM
- koff [10]: 0.00124 s⁻¹
- kon [10]: 1.66e+07 M⁻¹ s⁻¹
- Kd [11]: 71.3 pM
- koff [11]: 0.00097 s⁻¹
- kon [11]: 1.75e+07 M⁻¹ s⁻¹
